The values that follow come from patent US20060069055.

What all share (test): EMSA
In general terms: In EMSA bound probe runs differently from free probe, usually more slowly.

The subject of data set [1] is E2F.
The target in data set [2] is T1, NF-kB p50/p50 homodimer (Homo sapiens) (UniProt P19838).
T1 sequence: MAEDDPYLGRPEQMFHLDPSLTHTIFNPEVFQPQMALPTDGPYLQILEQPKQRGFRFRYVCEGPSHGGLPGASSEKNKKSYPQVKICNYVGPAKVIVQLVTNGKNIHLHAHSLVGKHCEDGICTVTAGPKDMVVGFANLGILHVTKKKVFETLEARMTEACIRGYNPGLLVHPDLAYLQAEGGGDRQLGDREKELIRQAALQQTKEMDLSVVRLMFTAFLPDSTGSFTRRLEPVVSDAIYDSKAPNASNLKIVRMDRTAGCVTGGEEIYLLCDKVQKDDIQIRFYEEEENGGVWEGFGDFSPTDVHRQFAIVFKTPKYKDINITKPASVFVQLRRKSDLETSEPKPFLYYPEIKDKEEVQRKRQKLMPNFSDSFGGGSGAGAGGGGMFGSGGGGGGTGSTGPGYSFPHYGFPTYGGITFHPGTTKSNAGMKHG
To be noted: score 100 = less than 50% competition at any ratio tested.

Data set [3] concerns the target NF-kB p65/p50 heterodimer (Homo sapiens) (UniProt Q04206+P19838). To be noted: 50% competition not reached; same for p50/p50.

NF-kB p65/p50 heterodimer (Homo sapiens), sequence (Q04206 whole entry, one chain of several): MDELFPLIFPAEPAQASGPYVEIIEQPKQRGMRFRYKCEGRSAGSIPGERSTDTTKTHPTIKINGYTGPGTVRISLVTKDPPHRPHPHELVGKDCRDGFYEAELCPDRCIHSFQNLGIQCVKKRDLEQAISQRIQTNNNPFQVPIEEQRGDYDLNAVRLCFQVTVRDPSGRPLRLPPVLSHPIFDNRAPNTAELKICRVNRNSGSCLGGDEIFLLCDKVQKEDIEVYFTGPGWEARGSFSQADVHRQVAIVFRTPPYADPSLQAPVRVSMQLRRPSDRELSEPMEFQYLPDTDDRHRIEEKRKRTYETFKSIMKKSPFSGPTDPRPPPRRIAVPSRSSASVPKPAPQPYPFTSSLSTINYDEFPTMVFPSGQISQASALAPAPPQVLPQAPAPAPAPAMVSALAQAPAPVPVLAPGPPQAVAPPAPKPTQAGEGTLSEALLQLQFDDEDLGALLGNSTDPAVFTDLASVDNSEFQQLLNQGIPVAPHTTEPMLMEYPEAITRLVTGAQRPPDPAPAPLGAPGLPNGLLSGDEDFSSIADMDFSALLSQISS

For “CTAGATTTCCCGCGGATC (double strand) [E2F novel decoy]”, the binding signal (% competition at 10-fold excess) in data set [1] (90% at 40-fold excess) was > 60.

Turning to “AGTTGAGACTTTCGCAGGC (double strand) [decoy 159 G-Z]”, in data set [2], the IC50 (fold molar excess) was > 100. The IC50 in data set [3] was 100 score.

As for “CTAGATTTCCCGCG (double strand) [E2F reference decoy]”, the binding signal (% competition at 10-fold excess) in data set [1] (40% at 40-fold excess) was determined as 7.
